These are literature values, as cited in publication PMC7417478.

The Kd is the equilibrium constant for the complex coming apart.

For data set [1], the target named is FGFR2 (Homo sapiens) (UniProt P21802).
Data set [2] addresses FGFR1 (Homo sapiens) (UniProt P11362).
Chain of UniProt P11362 (P11362 22-376): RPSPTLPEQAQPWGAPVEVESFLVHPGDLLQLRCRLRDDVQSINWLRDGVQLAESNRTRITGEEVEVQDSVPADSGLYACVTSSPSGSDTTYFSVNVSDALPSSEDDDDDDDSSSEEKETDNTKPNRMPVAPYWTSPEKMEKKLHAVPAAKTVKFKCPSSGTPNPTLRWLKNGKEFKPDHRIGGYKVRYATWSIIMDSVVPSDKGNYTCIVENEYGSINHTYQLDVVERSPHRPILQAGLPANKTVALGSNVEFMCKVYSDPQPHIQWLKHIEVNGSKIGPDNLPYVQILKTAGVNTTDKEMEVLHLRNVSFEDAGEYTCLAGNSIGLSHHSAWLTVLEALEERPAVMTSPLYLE

Chain of UniProt P21802 (P21802 22-377): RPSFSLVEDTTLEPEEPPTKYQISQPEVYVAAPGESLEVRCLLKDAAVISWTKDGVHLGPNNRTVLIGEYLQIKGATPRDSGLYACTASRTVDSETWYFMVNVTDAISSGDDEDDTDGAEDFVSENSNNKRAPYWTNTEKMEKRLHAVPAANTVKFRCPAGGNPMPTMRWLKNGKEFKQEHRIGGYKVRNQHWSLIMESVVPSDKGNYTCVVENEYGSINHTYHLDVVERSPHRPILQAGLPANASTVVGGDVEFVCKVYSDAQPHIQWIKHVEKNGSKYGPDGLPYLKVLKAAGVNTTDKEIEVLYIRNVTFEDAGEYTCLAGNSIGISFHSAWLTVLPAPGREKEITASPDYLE

For the substance FGF5 (from UniProt P12034), the Kd in data set [1] and in data set [2] was 1 nM each time.
